Reference: article PMC9907207 (2023)

B1: GAR12, human IgG1 monoclonal antibody (antibody, V domains shown)
VH: EVQLVQSGGGLVQPGGSLRLSCAASGFTFSSYAMSWVRQAPGKGLEWVLSISGSGGSTYYADSVKGRFTISIDNSKKTVYLQMNSLRAEDTAVYYCAKSGEQQLVQAEYFHHWGQGTLVTVSS
VL: DIQMTQSPSTLSASVGDRVTITCRASQSIGRWLAWYQQKPGKAPKLLIYDASSLESGVPSRFSGSGFGTEFTLTISSLQPDDFATYYCQQCDSLLTFGGGTKLEIK
modifications: biotin (EZ-Link NHS-PEG4-Biotin, 10:1) where loaded on the sensor
B2: GAR03, human IgG1 monoclonal antibody (antibody, V domains shown)
VH: QVQLVQSGAEVKKPGASVKVSCKASGYTFSSYDINWVRQAPGQGLEWMGWMSPNSGNTGYAQKFQGRVTMTRSTSMSTAYMELSSLRSEDTAVYFCARMSSSLTNYLDYWGQGTLVTVSS
VL: SYVLTQPPSVAVAPGQTARIRCGENDIGSKNVHWYQQKSGQAPVLVVYDDSDRPSGIPERFSGSNSGNTATLTISRVEAGDEADYYCQVWDSTGDHPDVVFGGGTKLTVL
modifications: biotin (EZ-Link NHS-PEG4-Biotin, 10:1) where loaded on the sensor

Target: SARS-CoV-2 RBD (residues 319-541), ancestral strain (SARS-CoV-2, UniProt P0DTC2 319-541)
Assay: BLI

| Binder | Kd |
| --- | --- |
| B1 | 200 pM |
| B2 | 310 pM |
